Reference: doi:10.1101/2023.05.17.541096 (bioRxiv, 2023)

Biological target: T1, human FIGNL1ΔN (FIGNL1 without the N-terminal 284 aa) (human, UniProt Q6PIW4 285-674)
T1 sequence: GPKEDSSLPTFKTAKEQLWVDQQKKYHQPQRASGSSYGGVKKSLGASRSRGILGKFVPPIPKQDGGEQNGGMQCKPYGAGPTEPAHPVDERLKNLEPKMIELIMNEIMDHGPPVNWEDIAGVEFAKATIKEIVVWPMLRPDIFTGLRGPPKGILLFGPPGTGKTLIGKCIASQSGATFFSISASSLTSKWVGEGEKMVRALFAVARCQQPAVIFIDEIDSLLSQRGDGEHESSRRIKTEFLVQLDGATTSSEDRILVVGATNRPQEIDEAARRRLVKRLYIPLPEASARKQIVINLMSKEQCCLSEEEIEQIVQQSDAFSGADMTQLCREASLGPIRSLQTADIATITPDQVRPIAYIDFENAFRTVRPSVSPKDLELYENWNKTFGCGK
Assay: native gel or EMSA

binding result: binds
B1: human RAD51 (natural protein)
chain: MAMQMQLEANADTSVEEESFGPQPISRLEQCGINANDVKKLEEAGFHTVEAVAYAPKKELINIKGISEAKADKILAEAAKLVPMGFTTATEFHQRRSEIIQITTGSKELDKLLQGGIETGSITEMFGEFRTGKTQICHTLAVTCQLPIDRGGGEGKAMYIDTEGTFRPERLLAVAERYGLSGSDVLDNVAYARAFNTDHQTQLLYQASAMMVESRYALLIVDSATALYRTDYSGRGELSARQMHLARFLRMLLRLADEFGVAVVITNQVVAQVDGAAMFAADPKKPIGGNIIAHASTTRLYLRKGRGETRICKIYDSPCLPEAEAMFAINADGVGDAKD
